Literature values in PMC10302803.

Target: VEGF-P3CYC
Sequence (main, as listed by the source): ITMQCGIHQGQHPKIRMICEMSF

Kd: 0.011 µM
Substance: VEGFR2 (from UniProt P35968)
